Experimental findings from patent US10919937 (Bicycle, dated 2021) are described below.

Values joined by “and” are separate entries in the source; they are usually repeats but may differ in a detail not shown here. Identical values can stand only once. *1 amine or outer side, *2 acyl side, *3 side chain or, on linkers, in order; H or OH if unused. Bridges are numbered along the chain shown (N, C = ends). Primed or numbered codes have the meaning given here. Where no end group is shown, it is not given here. [ ]: non-standard residue; d: D form. MSR‑C = 1-[4-[4-[4,6-bis[4-[1-(2-chloroacetyl)-4-piperidyl]piperazin-1-yl]-1,3,5-triazin-2-yl]piperazin-1-yl]-1-piperidyl]-2-chloro-ethanone, O=C(C[*:1])N1CCC(N2CCN(c3nc(N4CCN(C5CCN(C(=O)C[*:2])CC5)CC4)nc(N4CCN(C5CCN(C(=O)C[*:3])CC5)CC4)n3)CC2)CC1; MSR‑F = 1-[4-[4-[4,6-bis[4-[4-(2-chloroacetyl)piperazin-1-yl]phenyl]-1,3,5-triazin-2-yl]phenyl]piperazin-1-yl]-2-chloro-ethanone, O=C(C[*:1])N1CCN(c2ccc(-c3nc(-c4ccc(N5CCN(C(=O)C[*:2])CC5)cc4)nc(-c4ccc(N5CCN(C(=O)C[*:3])CC5)cc4)n3)cc2)CC1; MSR‑B = molecular scaffold reagent B, 2,4,6-tris[4-(bromomethyl)phenyl]-1,3,5-triazine, c1cc(-c2nc(-c3ccc(C[*:2])cc3)nc(-c3ccc(C[*:3])cc3)n2)ccc1C[*:1]; MSR‑B(3) = molecular scaffold reagent 2,4,6-tris[4-(bromomethyl)phenyl]-1,3,5-triazine, c1cc(-c2nc(-c3ccc(C[*:2])cc3)nc(-c3ccc(C[*:3])cc3)n2)ccc1C[*:1]; MSR‑G = scaffold reagent with three vinyl sulfonyl Michael acceptors (C9H15N3O6S3), O=S(=O)(CC[*:1])N1CN(S(=O)(=O)CC[*:2])CN(S(=O)(=O)CC[*:3])C1; MSR‑H = 1-[4-(bromomethyl)phenyl]-N,N-bis[[4-(bromomethyl)phenyl]methyl]methanamine, c1cc(C[*:1])ccc1CN(Cc1ccc(C[*:2])cc1)Cc1ccc(C[*:3])cc1; MSR‑B″ = 2,4,6-tris[4-(bromomethyl)phenyl]-1,3,5-triazine, c1cc(-c2nc(-c3ccc(C[*:2])cc3)nc(-c3ccc(C[*:3])cc3)n2)ccc1C[*:1]; MSR‑E = scaffold reagent with three bromomethyl groups (C27H24Br3N3O3); 1Nal = N[C@@H](Cc1cccc2ccccc12)C(=O)O; Tle = CC(C)(C)[C@H](N)C(=O)O; MSR‑D = not defined here

One may read the Kd as the free concentration of one partner at which half of the binding sites on the other are occupied at equilibrium, for simple one-to-one binding. High values mean a looser complex, low ones a tighter complex. In general, Ki refers to a dissociation constant, usually derived from enzyme kinetics or from competition with a known ligand.

First the molecules themselves.
B1: Compound I-109 (peptide)
peptide: YTECWVDGWVPY
modifications: also: cyclised via a tyrosine linkage to an unnamed scaffold, places not given here
notes: also called 1-109
B2: Compound I-108 (peptide)
peptide: CTEYWVDGWVPC
modifications: also: cyclised via a tyrosine linkage to an unnamed scaffold, places not given here
notes: also called 1-108

The first test deals with T1, EphA2 (UniProt P29317 25-534, limits assumed, biotinylated with EZ-Link Sulfo-NHS-LC-Biotin (sites not given)).
T1 construct: Fc-tagged proteins are also mentioned; also called ephrin type-A receptor 2; biotinylated EphA2
T1 sequence (P29317 25-534 limits assumed): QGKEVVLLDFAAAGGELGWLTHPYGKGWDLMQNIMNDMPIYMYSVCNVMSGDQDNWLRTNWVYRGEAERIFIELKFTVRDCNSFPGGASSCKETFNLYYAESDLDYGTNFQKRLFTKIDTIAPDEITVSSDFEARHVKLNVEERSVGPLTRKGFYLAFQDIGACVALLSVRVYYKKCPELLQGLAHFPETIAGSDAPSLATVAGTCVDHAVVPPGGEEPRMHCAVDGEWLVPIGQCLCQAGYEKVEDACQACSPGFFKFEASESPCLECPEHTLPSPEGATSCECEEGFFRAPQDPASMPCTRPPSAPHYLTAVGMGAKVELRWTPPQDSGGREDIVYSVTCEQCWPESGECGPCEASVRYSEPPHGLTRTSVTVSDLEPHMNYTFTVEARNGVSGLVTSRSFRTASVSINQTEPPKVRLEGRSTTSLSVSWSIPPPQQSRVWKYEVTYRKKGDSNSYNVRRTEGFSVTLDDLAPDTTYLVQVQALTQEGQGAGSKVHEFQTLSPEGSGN
As to the kind of experiment: SPR (Biacore), biotinylated EphA2 on streptavidin, peptide as analyte, n = 2. Here is the method: SPR Measurements: Non-Fc fusion proteins were biotinylated with EZ-Link™ Sulfo-NHS-LC-Biotin for 1 hour in 4 mM sodium acetate, 100 mM NaCl, pH 5.4 with a 3× molar excess of biotin over protein. The degree of labelling was determined using a Fluorescence Biotin Quantification-Kit (Thermo) after dialysis of the reaction mixture into PBS. For analysis of peptide binding, a Biacore T200 10 instrument was used utilising a XanTec CMD500D chip. Streptavidin was immobilized on the chip using standard amine-coupling chemistry at 25° C. with HBS—N (10 mM HEPES, 0.15 M NaCl, pH 7.4) as the running buffer. Briefly, the carboxymethyl dextran surface was activated with a 7 min injection of a 1:1 ratio of 0.4 M 1-ethyl-3-(3-dimethylaminopropyl) carbodiimide hydrochloride (EDC)/0.1 M N-hydroxy succinimide (NHS) at a flow rate of 10 μl/min. For capture of streptavidin, the protein was diluted to 0.2 mg/ml in 10 mM sodium acetate (pH 4.5) and captured by injecting 120 μl onto the activated chip surface. Residual activated groups were blocked with a 7 min injection of 1 M ethanolamine (pH 8.5):HBS—N (1:1). Buffer was changed to PBS/0.05% Tween 20 and biotinylated EphA2 was captured to a level of 500-1500 RU using a dilution of protein to 0.2 μM in buffer. A dilution series of the peptides was prepared in this buffer with a final DMSO concentration of 0.5% with a top peptide concentration was 50 or 100 nM and 6 further 2-fold dilutions. The SPR analysis was run at 25° C. at a flow rate of […] with 60 seconds association and 900-1200 seconds dissociation. Data were corrected for DMSO excluded volume effects. All data were double-referenced for blank injections and reference surface using standard processing procedures and data processing and kinetic fitting were performed using Scrubber software, version 2.0c (BioLogic Software).
Data were fitted using simple 1:1 binding model allowing for mass transport effects where appropriate for binding of Bicycle Drug Conjugates, a Biacore 3000 instrument was used. For biotinylated proteins immobilisation levels were 1500 RU and the top concentration was 100 nM. Otherwise the method was the same as described above using either the CMD500D or a CM5 chip (GE Healthcare).
Turning to ADVHCPWGPFWCPVNRPGCA (linker 5-12-19 via MSR‑G; not fully specified) [Compound I-105], the dissociation constant Kd was < 0.5 µM.

ADVHCPWGPFWCPVNRPGCA (linker 5-12-19 via MSR‑H; not fully specified) [Compound I-106]: the equilibrium dissociation constant (Kd) is < 0.5 µM. Same read-out and setting: the result for ADVHCPWGPFWCPVNRPGCA (linker 5-12-19 via MSR‑C; also: a note names MSR-B as the scaffold) [Compound I-101] reads < 0.5 µM; that for ADVHCPWGPFWCPVNRPGCA (linker 5-12-19 via MSR‑F; not fully specified) [Compound I-104], < 0.5 µM. For ADVHCPWGPFWCPVNRPGCA (linker 5-12-19 via MSR‑B″) [Compound I-100], the Kd is < 0.5 µM.

In a further test the target is human carbonic anhydrase IX (human, UniProt Q16790 38-414). Kind of test: competition fluorescence polarization, tracer SEQ ID NO: 11, n = 2. (Fluorescence polarisation rises when a labelled molecule tumbles more slowly, as on binding a larger partner.)
As to B1, the Ki is ≥ 0.5 µM and < 1 µM. On the same count and under the same terms, the result for CTECWVDGWVPC (linker 1-4-12 via MSR‑B(3) (inferred), also called 1-98) [Compound I-98] reads < 0.5 µM. Turning to B2, the inhibitory constant (Ki) is < 0.5 µM.

Another test concerns the target T2, MT1-MMP hemopexin domain (UniProt P50281 319-511).
T2 construct: domain: hemopexin domain; also called MMP14; membrane type 1 metalloprotease
Kind of test: MT1-MMP direct binding fluorescence polarization (as titled), n = 2. How it is done: Example 5: Dissociation Rate Constant Determination of Bicyclic Binders to MT1-MMP Direct Binding Fluorescence Polarization (Anisotropy) Assays Direct Binding Fluorescence Polarization or Anisotropy Assays are performed by titrating a constant concentration of fluorescent tracer (here, the fluoresceinated bicyclic peptide to be studied) with its binding partner (here, the MT1-MMP hemopexin domain). As the concentration of binding partner increases during the titration, the polarization signal changes in proportion to the fraction of bound and unbound material. This allows determination of […] (K_d) quantitatively. Assay data can be fit using standard ligand binding equations.
Typically, concentrations of the tracer are ideally well below the K_d of the tracer:titrant pair, and concentrations chosen are usually at ~1 nM or less. The titrant (binding partner) concentration is varied from 0.1 nM up to typically 5 μM. The range is chosen such that the maximum change in fluorescent polarization can be observed. Buffers employed are phosphate buffered saline in the presence of 0.01% Tween. Experiments were run in black 384 well low-bind/low volume plates (Corning 3820), and the fluorescent polarization signal was measured using a BMG Pherastar FS plate reader. Fluorescent tracers referred to in the text are bicyclic peptides that have been fluoresceinated using 5,6-carboxyfluorescein. Fluoresceination may be performed on the N-terminal amino group of the peptide, which is separated from the bicycle core sequence by a sarcosine spacer (usually Sar5). This can be done during Fmoc solid phase synthesis or post-synthetically (after cyclization with the molecular scaffold reagent and purification) if the N-terminal amino group is unique to the peptide. Fluoresceination can also be performed on the C-terminus, usually on a Lysine introduced as the first C-terminal residue, which is then separated from the bicycle core sequence by a sarcosine spacer (usually Sar6). Thus, N-terminal tracers can have a molecular format described as Fluo-Gly-Sar5-A(Bicycle-CoreSequence), and (BicycleCoreSequence)-A-Sar6-K (Fluo) for a C-terminally fluoresceinated construct.
Regarding AC[dA]NE[1Nal][dA]CEDFYD[Tle]C (linker 2-8-15 via MSR‑G, also called 1-95) [Compound I-95], the Ki was ≥ 0.5 µM and < 1 µM. On the same count and under the same terms, the result for AC[dA]NE[1Nal][dA]CEDFYD[Tle]C (linker 2-8-15 via MSR‑H, also called 1-96) [Compound I-96] reads < 0.5 µM.

On to AC[dA]NE[1Nal][dA]CEDFYD[Tle]C (linker 2-8-15 via MSR‑B, also called 1-90) [Compound I-90], for which the Ki is < 0.5 µM.

Regarding AC[dA]NE[1Nal][dA]CEDFYD[Tle]C (linker 2-8-15 via MSR‑C, also called 1-91) [Compound I-91], the Ki was < 0.5 µM.

As for AC[dA]NE[1Nal][dA]CEDFYD[Tle]C (linker 2-8-15 via MSR‑E, also called 1-93) [Compound I-93], the inhibition constant (Ki) was < 0.5 µM. On the same count and under the same terms, the result for AC[dA]NE[1Nal][dA]CEDFYD[Tle]C (linker 2-8-15 via MSR‑D; not fully specified; reading uncertain, also called 1-92) [Compound I-92] reads ≥ 0.5 µM and < 1 µM. Same read-out and setting: the result for AC[dA]NE[1Nal][dA]CEDFYD[Tle]C (linker 2-8-15 via MSR‑F, also called 1-94) [Compound I-94] reads < 0.5 µM.
